The data set deals with the molecule itself. Nature of the data set: SEC. For orientation: In gel filtration, larger molecules generally elute earlier.

The values that follow come from article PMC9436932 (Scientific Reports, 2022).

B1: TatB^22–171 (soluble membrane-extrinsic cytoplasmic domain of E. coli TatB, transmembrane helix residues 1–21 deleted) (domain or fragment, UniProt P69425 22-171, looked up)
chain: PQRLPVAVKTVAGWIRALRSLATTVQNELTQELKLQEFQDSLKKVEKASLTNLTPELKASMDELRQAAESMKRSYVANDPEKASDEAHTIHNPVVKDNEAAHEGVTPAAAQTQASSPEQKPETTPEPVVKPAADAEPKTAAPSPSSSDKP
notes: also called membrane-extrinsic domain of TatB; soluble TatB
Regarding B1, the binding result was “binds”.
